The target in this data set is T1, AtHYL1-FL (HYL1/DRB1 full length) (Arabidopsis thaliana, UniProt O04492 1-419).
T1 sequence: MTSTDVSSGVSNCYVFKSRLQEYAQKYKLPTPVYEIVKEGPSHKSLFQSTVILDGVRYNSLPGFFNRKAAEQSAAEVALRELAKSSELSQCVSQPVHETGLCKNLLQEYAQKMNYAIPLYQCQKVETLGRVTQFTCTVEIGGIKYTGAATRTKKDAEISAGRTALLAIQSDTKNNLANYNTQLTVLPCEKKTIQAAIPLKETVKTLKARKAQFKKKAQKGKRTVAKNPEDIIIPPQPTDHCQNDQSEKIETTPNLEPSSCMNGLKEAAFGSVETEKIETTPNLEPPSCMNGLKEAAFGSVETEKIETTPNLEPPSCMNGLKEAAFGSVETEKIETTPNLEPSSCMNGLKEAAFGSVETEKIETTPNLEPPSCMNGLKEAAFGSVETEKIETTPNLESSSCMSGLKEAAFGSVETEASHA
Description: EMSA. (In general: In EMSA bound probe runs differently from free probe, usually more slowly.)

B1: 50-nt DNA hairpin (dsDNA hairpin loop) (structured_DNA)
DNA: GCCCTGCAACCGAGACCACGCTTATGGAGCCTGGGACGTGGTCTCGGTTG
For the molecule B1, the binding result was “binds”.
